In patent US20230257472A1 (JIANGSU HENGRUI MEDICINE, published 2023):

T1: human CD70 on cells (CD70-positive 786-O cells, Raji cells, CHO-S cells expressing human full-length CD70, … (human, UniProt P32970 1-193))
T1 sequence (looked up): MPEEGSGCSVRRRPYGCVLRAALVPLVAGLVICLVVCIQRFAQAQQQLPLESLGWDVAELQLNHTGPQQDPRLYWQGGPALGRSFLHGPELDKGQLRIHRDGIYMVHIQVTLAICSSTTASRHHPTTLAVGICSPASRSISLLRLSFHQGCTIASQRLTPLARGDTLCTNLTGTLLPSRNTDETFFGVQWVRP

T2: His-tagged CD70 protein extracellular domain (His-TNC-CD70) (human)
T2 construct: Expressed in 293 cells; also called human His-TNC-CD70 antigen; human CD70 antigen
T2 chain: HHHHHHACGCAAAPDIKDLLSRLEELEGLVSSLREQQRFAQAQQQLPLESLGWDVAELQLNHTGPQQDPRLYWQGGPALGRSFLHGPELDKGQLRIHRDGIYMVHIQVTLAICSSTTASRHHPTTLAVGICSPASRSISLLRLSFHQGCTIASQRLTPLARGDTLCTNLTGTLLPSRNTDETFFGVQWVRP


Experiments:
[1] = target: fusion protein of the CD70 protein extracellular domain and Human-IgG1-Fc (human CD70-Fc) (human); experiment: ELISA, plate coated with 1 µg/mL human CD70-Fc, HRP goat anti-human F(ab')2 detection
Description: (§1) The binding ability of the anti-CD70 antibodies was determined by the amount of the antibodies bound to the CD70 antigen protein immobilized on the ELISA plate. 1 μg/mL human CD70-Fc (set forth in SEQ ID NO: 2), monkey CD70-Fc (set forth in SEQ ID NO: 82) and mouse CD70-Fc (set forth in SEQ ID NO: 83) were coated, incubated and blocked. […] OD450 values were measured on a microplate reader.

[2] = target: T3, fusion protein of the monkey CD70 protein extracellular domain and Human-IgG1-Fc (monkey CD70-Fc) (monkey); experiment: ELISA, plate coated with 1 µg/mL monkey CD70-Fc, HRP goat anti-human F(ab')2 detection
T3 construct: also called monkey CD70 antigen
Description: as §1

[3] = target: T1, human CD70 on cells (CD70-positive …); experiment: cell-based or functional assay
[4] = target: T1, human CD70 on cells (CD70-positive …); experiment: flow cytometry on CD70-positive 786-O cells, Alexa Fluor 488 goat anti-human (H+L) detection
Description: (§2) 786-O cells (ATCC, CRL-1932) or Raji cells (ATCC, CCL-86) at 1×10⁶ cells/mL were blocked with 1% BSA PBS buffer, followed by the addition of diluted anti-CD70 antibody samples at different concentrations were added, and the mixture was incubated for 1 h. After the plate was washed twice, Alexa Fluor 488-goat anti-human (H+L) antibody (Invitrogen, CAT #A 11013) was added, and the mixture was incubated for 1 h. After the plate was washed twice, fluorescence signals were read using a flow cytometer.

[5] = target: T4, fusion protein of the murine CD70 protein extracellular domain and Human-IgG1-Fc (mouse CD70-Fc) (mouse); experiment: ELISA, plate coated with 1 µg/mL mouse CD70-Fc, HRP goat anti-human F(ab')2 detection
T4 construct: also called mouse CD70 antigen
Description: as §1

[6] = target: T2, His-tagged CD70 protein extracellular …; experiment: SPR Biacore T200, antibody captured by anti-human Fc, His-TNC-CD70 in flow, 1:1 model
Description: The affinity of the chimeric and humanized antibodies of the present disclosure for the human CD70 antigen was tested using a Biacore instrument. The procedures are as follows:
The human Fc capture molecules were covalently coupled to a CM5 biosensor chip (CAT #BR-1005-30, GE) according to the method described in the instructions of the human Fc capture kit (CAT #BR-1008-39, GE) for affinity capture of the antibodies to be tested. Then, a human His-TNC-CD70 antigen (set forth in SEQ ID NO: 1) flowed through the surface of the chip, and the reaction signal was detected in real time using a Biacore T200 instrument to obtain association and dissociation curves. After the dissociation was completed for each cycle, the biochip was washed and regenerated with a regeneration solution configured in the human antibody capture kit (GE). Data were fitted using a 1:1 model.

[7] = target: T1, human CD70 on cells (CD70-positive …); experiment: flow cytometry competition on CHO-S cells expressing human full-length CD70; blocked ligand: biotin-labeled CD27-Fc, Alexa Fluor 488 streptavidin detection
Description: The cell-blocking activity of the anti-CD70 antibodies was assayed by flow cytometry. CHO-S cells expressing human full-length CD70 (Invitrogen, R80007) at 1×10⁶ cells/mL were blocked with 1% BSA PBS buffer, followed by the addition with diluted anti-CD70 antibody samples at different concentrations and biotin-labeled CD27-Fc (set forth in SEQ ID NO: 84), and the mixture was incubated for 1 h. After the plate was washed twice, Alexa Fluor 488-streptavidin (Invitrogen, CAT #S11223) was added, and the mixture was incubated for 1 h. After the plate was washed twice, fluorescence signals were read using a flow cytometer.

[8] = target: T1, human CD70 on cells (CD70-positive …); experiment: flow cytometry on CD70-positive Raji cells, Alexa Fluor 488 goat anti-human (H+L) detection
Description: as §2

T3 sequence (chain, as listed by the source limits assumed): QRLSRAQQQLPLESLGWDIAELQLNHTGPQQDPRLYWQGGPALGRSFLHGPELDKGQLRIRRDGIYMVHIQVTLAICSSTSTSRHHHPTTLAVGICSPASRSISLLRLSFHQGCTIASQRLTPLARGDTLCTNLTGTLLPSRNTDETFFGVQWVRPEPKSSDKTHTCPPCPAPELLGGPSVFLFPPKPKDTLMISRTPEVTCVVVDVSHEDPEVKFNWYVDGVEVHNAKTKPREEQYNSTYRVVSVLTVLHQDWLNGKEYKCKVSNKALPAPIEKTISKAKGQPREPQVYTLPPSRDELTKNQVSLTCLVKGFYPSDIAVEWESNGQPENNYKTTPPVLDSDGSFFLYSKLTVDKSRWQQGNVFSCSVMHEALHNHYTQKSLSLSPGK
T4 sequence (chain, as listed by the source limits assumed): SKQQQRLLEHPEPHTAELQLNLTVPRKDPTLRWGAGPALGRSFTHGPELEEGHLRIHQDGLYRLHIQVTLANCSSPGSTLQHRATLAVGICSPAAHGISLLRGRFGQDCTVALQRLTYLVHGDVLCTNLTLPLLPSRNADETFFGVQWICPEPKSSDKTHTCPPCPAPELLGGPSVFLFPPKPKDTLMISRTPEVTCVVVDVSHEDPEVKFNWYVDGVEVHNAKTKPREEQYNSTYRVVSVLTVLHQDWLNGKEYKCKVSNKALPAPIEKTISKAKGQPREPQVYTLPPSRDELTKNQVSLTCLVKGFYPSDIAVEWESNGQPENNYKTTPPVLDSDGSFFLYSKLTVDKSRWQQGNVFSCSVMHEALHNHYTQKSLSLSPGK
fusion protein of the CD70 protein extracellular domain and Human-IgG1-Fc (human CD70-Fc) (human), sequence (chain, as listed by the source limits assumed): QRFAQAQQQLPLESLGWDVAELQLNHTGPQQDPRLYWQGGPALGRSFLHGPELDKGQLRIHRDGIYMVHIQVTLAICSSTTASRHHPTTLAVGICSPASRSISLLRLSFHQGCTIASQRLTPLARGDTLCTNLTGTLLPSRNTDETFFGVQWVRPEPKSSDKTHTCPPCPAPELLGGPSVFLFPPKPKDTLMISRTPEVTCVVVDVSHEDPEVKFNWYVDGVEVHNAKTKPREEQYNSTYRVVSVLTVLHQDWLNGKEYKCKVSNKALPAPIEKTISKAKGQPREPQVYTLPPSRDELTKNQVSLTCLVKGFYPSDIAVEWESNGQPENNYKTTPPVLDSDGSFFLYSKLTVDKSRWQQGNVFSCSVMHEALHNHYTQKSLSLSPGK

binding result [1]	EC50 (read off the curve) [2]	IC50 (ng/mL), inhibition of IL-8 secretion mediated by CD70/CD27 binding (U266 cells + HT1080/CD27 cells) [3]	Imax (%), maximum inhibition rate of IL-8 secretion from CD27 cells [3]	EC50 (read off the curve) [4]	binding result [5]	Kd [6]	koff [6]	kon [6]	IC50 (read off the curve) [7]	EC50 (read off the curve) [1]	EC50 (read off the curve) [8]	binding result [2]	Binder
binds	~0.03 µg/mL	21 ng/mL	98.7%	~0.02 µg/mL	no binding (tested: 10 µg/mL (log 1))	0.0286 nM	0.000174 s⁻¹	6.09e+06 M⁻¹ s⁻¹	~0.4 µg/mL	–	–	–	huB7002 (antibody, human IgG1, kappa, V domains shown, Humanized IgG1) VH: EVQLVQSGSELKKPGASVKVSCKASGYTFTNYGMNWVRQAPGQGLEWMGWINTYTGEPTYADEFKGRFVFSLDTSVSTAYLQISSLKAEDTAVYYCARGDSFTTEILRNWYFDVWGQGTTVTVSS VL: DIQMTQSPSSLSASVGDRVTITCGASENIYGALNWYQQKPGKVPKLLIYGATNLADGVPSRFSGSGSGTDFTLTISSLQPEDVATYYCQNVLSTPWTFGGGTKVEIKR
–	~0.05 µg/mL	14.2 ng/mL	93.8%	~0.03 µg/mL	no binding (tested: 10 µg/mL (log 1))	0.0465 nM	0.000145 s⁻¹	3.12e+06 M⁻¹ s⁻¹	~0.4 µg/mL	~0.03 µg/mL	~0.02 µg/mL	–	huF4011 (antibody, human IgG1, kappa, V domains shown, Humanized IgG1) VH: EVQLVQSGAEVKKPGSSVKVSCKASGDTFPRYNMHWVRQAPGQGLEWMGAIFPGTGETSYNQNFKGRVTLTADKSTSTAYMELSSLRSEDTAVYYCARNSYYDYAWFTYWGQGTLVTVSS VL: DIVMTQSPDSLAVSLGERATINCRASKSVSSSGYSFMHWYQQKPGQPPKLLISLADNLESGVPDRFSGSGSGTDFTLTISSLQAEDVAVYYCQHSREFPPTFGQGTKLEIKR
–	–	–	–	~0.02 µg/mL	no binding (tested: 10 µg/mL (log 1))	0.0355 nM	0.00013 s⁻¹	3.67e+06 M⁻¹ s⁻¹	~0.4 µg/mL	~0.04 µg/mL	~0.02 µg/mL	binds	huB1010 (antibody, human IgG1, kappa, V domains shown, Humanized IgG1) VH: EVQMVQSGAEVKKPGASVKVSCKASGYTFTTYNIHWVRQAPGQGLEWMGDIYPGTGDASYNQKFRDRVTMTRDTSTSTVYMELSSLRSEDTAVYYCATFSRFDGWFAYWGQGTLVTVSS VL: DIVMTQSPDSLAVSLGERATINCRASRSVSTSGYSYMHWYQQKPGQPPKLLIYLADNLESGVPDRFSGSGSGTDFTLTISSLQAEDVAVYYCQHSRELPYTFGGGTKVEIKR
